Among the data in patent publication US20180135019A1 are reduction in antibody binding, MFI and reduction in MFI values, retold here.

The target of assay [1] is STRO-1 monoclonal antibody. The assay can be described thus: competition: STRO-1 pre-incubated with GST-L393, flow cytometry on UE7T-13 cells, relative to pre-incubation with GST alone.
Assay [2] has as its target heat shock cognate 70 (HSC70; HSPA8) on the surface of UE7T-13 cells (human) (UniProt P11142). The assay can be described thus: flow cytometry on UE7T-13 cells, hybridoma supernatant, fluorescein anti-mouse IgM. (In general: A flow cytometer gives signals particle by particle.)
UniProt P11142, sequence (P11142 2-646 limits assumed): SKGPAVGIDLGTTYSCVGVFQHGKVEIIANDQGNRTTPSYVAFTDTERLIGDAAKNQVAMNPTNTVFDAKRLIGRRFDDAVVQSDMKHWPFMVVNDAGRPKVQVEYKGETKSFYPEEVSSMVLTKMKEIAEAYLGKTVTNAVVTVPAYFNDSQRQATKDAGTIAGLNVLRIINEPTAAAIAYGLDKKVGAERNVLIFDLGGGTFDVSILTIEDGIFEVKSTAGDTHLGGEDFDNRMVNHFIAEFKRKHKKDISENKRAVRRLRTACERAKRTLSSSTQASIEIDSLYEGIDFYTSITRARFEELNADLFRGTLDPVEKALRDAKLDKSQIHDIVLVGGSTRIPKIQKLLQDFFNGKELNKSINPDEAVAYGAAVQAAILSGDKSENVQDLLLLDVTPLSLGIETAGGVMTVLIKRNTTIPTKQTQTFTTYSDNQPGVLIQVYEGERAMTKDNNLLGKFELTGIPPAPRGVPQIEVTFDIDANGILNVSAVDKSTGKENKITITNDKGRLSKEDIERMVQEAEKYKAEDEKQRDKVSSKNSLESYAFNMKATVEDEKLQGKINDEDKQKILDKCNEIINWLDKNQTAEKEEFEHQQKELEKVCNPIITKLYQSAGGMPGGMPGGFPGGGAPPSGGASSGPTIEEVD
Assay [3] concerns the target STRO-1 monoclonal antibody. Briefly: competition: STRO-1 pre-incubated with rh-HSC70 overnight at 4 C, flow cytometry of STRO-1 on UE7T-13 cells.

On to “GST-L393 (N-terminal Glutathione S-transferase fusion of the first 393 amino acids of human HSC70) (from UniProt A2Q0Z1 1-393)”, for which, in assay [1], the reduction in antibody binding was 60%.

In assay [2], STRO-1 monoclonal antibody came in with an MFI of 17200.

In the case of “recombinant human HSC70 (Enzo) (from UniProt A2Q0Z1 1-646)”, in assay [3], the reduction in MFI stood at 30%.
